Data as given in patent US20250197820A1, “NUCLEIC ACID POLYMERASE AND ITS USE IN PRODUCING NON-DNA NUCLEOTIDE POLYMERS” (UNITED KINGDOM RESEARCH AND INNOVATION, priority 2021, published 2025).

Legend:
Format in all cases: biochemical
2M = target: T1, 2M (Thermococcus gorgonarius, UniProt P56689, A485L/D141A/E143A/E664K/F545L/I521L/K592A/T541G/V93Q/Y409G); assay: Steady-state kinetics of single nucleotide incorporation by 2M; details: single nucleotide incorporation from 2′OMe-RNA primer; for improvement of KM value compared to ATP: 50° C.
T1 construct: made in house; host or cells: E. coli BL21 CodonPlus-RIL
Description: Steady-state kinetic parameters for NTP incorporation by 2M were determined by performing initial velocity measurements of single incorporations of either ATP, 2′OMe-ATP, or MOE-ATP. To generate the 2′OMe-RNA/DNA substrate, a 20-mer 2′OMe-RNA primer FD was 5′ 6-carboxyfluorescein end-labeled and annealed to the 52-mer DNA template BFL770 (Supplementary Table 1) at a 1:1.2 molar ratio. The reactions were performed at 50° C. in a mixture containing 1× Thermopol buffer, 6 mM Mg^2+, 100 nM 2′OMe-RNA/DNA substrate, and at NTP concentrations ranging from 0.5-250 μM. Enzyme concentrations and reaction times were selected to maintain initial velocity conditions. The 25 μL reactions were stopped by addition of a quenching solution containing 100 mM EDTA, 80% deionized formamide, 0.25 mg/ml bromophenol blue and 0.25 mg/ml xylene cyanol. Moreover, less than 20% of the primers were extended as required for steady-state conditions.
Product and substrate were separated on a 22% denaturing (8 M urea) polyacrylamide gel. The resulting bands were quantified using a Cytiva Typhoon RGB imager in fluorescence mode. Steady-state kinetic parameters (KM, kcat) were determined by fitting the data to the Michaelis-Menten equation. The data are the means and standard error from three independent experiments.

[1] = tested on: random N40 template Tag3.3-N40-Test2; assay: Primer extension on random N40 template (denaturing PAGE, densitometry)
Description: (§1) Analytical primer extension reactions were carried out in 1× Thermopol buffer (NEB) supplemented with MgSO4 (4 mM). Primer (100 nM) was extended on a template (200 nM) with appropriate nucleoside triphosphates (125-250 μM each) by purified polymerase (10-100 μg/mL) in a 10-μL reaction volume. Reactions were carried out at 65° C. Primer extension products were analysed via urea-PAGE. All extensions with MOE-NTPs on defined-sequence template TempNpure required post-synthesis template capture with a ten-fold excess of antisense template, Turbo DNase (Invitrogen) treatment, subsequent Proteinase K (NEB) treatment, and loading on the urea-PAGE gel with a ten-fold excess of antisense template. Primer extensions with MOE-NTPs on template sfGFP required polymerase concentrations of 500 μg/mL.

template TempNpure = assay: Primer extension on defined-sequence template (denaturing PAGE)
Description: as §1

template sfGFP = assay: Long-range synthesis of a GFP transcript; details: 2′OMe-RNA primer Synth-out1mm
Description: as §1

[2] = FIG. 1g, RNA/2′OMe-RNA primer A-Test2, full length +79 nt
[3] = FIG. 3e, 2′OMe-RNA primer A-Test2, full length +79 nt

Molecule | Vmax/kcat values for incorporation (2M) | improvement of KM value compared to ATP (2M) | densitometry of N40 synthesis yield, 2′OMe-RNA [1, 2] [%] | densitometry of N40 synthesis yield, 2′OMe-RNA [1, 3] [%] | densitometry of N40 synthesis yield, MOE-RNA [1, 3] [%] | 2′OMe-RNA synthesis activity (in words) (template TempNpure; denaturing PAGE) | also measured
CO[C@@H]1[C@H](O)[C@@H](COP(=O)(O)OP(=O)(O)OP(=O)(O)O)O[C@H]1n1cnc2c(N)ncnc21 [2′OMe-ATP] | essentially identical | approximately 5 fold | – | – | – | – | –
COCCOC1C(O)C(COP(=O)(O)OP(=O)(O)OP(=O)(O)O)OC1n1cnc2c(N)ncnc21 (stereo not shown) [MOE-ATP] | essentially identical | approximately 5 fold | – | – | – | – | –
TGLLK: Tgo: V93Q, D141A, E143A, Y409G, A485L, I521L, F545L, E664K; previously described parent polymerase (protein, UniProt P56689 1-773, looked up, variant V93Q D141A E143A Y409G A485L I521L F545L E664K) DNA polymerase: MILDTDYITEDGKPVIRIFKKENGEFKIDYDRNFEPYIYALLKDDSAIEDVKKITAERHGTTVRVVRAEKVKKKFLGRPIEVWKLYFTHPQDQPAIRDKIKEHPAVVDIYEYDIPFAKRYLIDKGLIPMEGDEELKMLAFAIATLYHEGEEFAEGPILMISYADEEGARVITWKNIDLPYVDVVSTEKEMIKRFLKVVKEKDPDVLITYNGDNFDFAYLKKRSEKLGVKFILGREGSEPKIQRMGDRFAVEVKGRIHFDLYPVIRRTINLPTYTLEAVYEAIFGQPKEKVYAEEIAQAWETGEGLERVARYSMEDAKVTYELGKEFFPMEAQLSRLVGQSLWDVSRSSTGNLVEWFLLRKAYERNELAPNKPDERELARRRESYAGGYVKEPERGLWENIVYLDFRSLGPSIIITHNVSPDTLNREGCEEYDVAPQVGHKFCKDFPGFIPSLLGDLLEERQKVKKKMKATIDPIEKKLLDYRQRLIKILANSFYGYYGYAKARWYCKECAESVTAWGRQYLETTIREIEEKFGFKVLYADTDGFLATIPGADAETVKKKAKEFLDYINAKLPGLLELEYEGFYKRGFFVTKKKYAVIDEEDKITTRGLEIVRRDWSEIAKETQARVLEAILKHGDVEEAVRIVKEVTEKLSKYEVPPEKLVIYKQITRDLKDYKATGPHVAVAKRLAARGIKIRPGTVISYIVLKGSGRIGDRAIPFDEFDPAKHKYDAEYYIENQVLPAVERILRAFGYRKEDLRYQKTRQVGLGAWLKPKT | – | – | 0 | 1 | 0 | comparatively inefficient | –
3M: Tgo polymerase as 2M but with E664R (SEQ ID NO: 4) (protein) MILDTDYITEDGKPVIRIFKKENGEFKIDYDRNFEPYIYALLKDDSAIEDVKKITAERHGTTVRVVRAEKVKKKFLGRPIEVWKLYFTHPQDQPAIRDKIKEHPAVVDIYEYDIPFAKRYLIDKGLIPMEGDEELKMLAFAIATLYHEGEEFAEGPILMISYADEEGARVITWKNIDLPYVDVVSTEKEMIKRFLKVVKEKDPDVLITYNGDNFDFAYLKKRSEKLGVKFILGREGSEPKIQRMGDRFAVEVKGRIHFDLYPVIRRTINLPTYTLEAVYEAIFGQPKEKVYAEEIAQAWETGEGLERVARYSMEDAKVTYELGKEFFPMEAQLSRLVGQSLWDVSRSSTGNLVEWFLLRKAYERNELAPNKPDERELARRRESYAGGYVKEPERGLWENIVYLDFRSLGPSIIITHNVSPDTLNREGCEEYDVAPQVGHKFCKDFPGFIPSLLGDLLEERQKVKKKMKATIDPIEKKLLDYRQRLIKILANSFYGYYGYAKARWYCKECAESVTAWGRQYLETTIREIEEKFGFKVLYADGDGFLATIPGADAETVKKKAKEFLDYINAKLPGLLELEYEGFYKRGFFVTKAKYAVIDEEDKITTRGLEIVRRDWSEIAKETQARVLEAILKHGDVEEAVRIVKEVTEKLSKYEVPPEKLVIYRQITRDLKDYKATGPHVAVAKRLAARGIKIRPGTVISYIVLKGSGRIGDRAIPFDEFDPAKHKYDAEYYIENQVLPAVERILRAFGYRKEDLRYQKTRQVGLGAWLKPKT | – | – | – | – | – | virtually identical synthesis activity | –
2M+D614N: 2M polymerase bearing the DGLNK mutation D614N (SEQ ID NO: 5) (protein) MILDTDYITEDGKPVIRIFKKENGEFKIDYDRNFEPYIYALLKDDSAIEDVKKITAERHGTTVRVVRAEKVKKKFLGRPIEVWKLYFTHPQDQPAIRDKIKEHPAVVDIYEYDIPFAKRYLIDKGLIPMEGDEELKMLAFAIATLYHEGEEFAEGPILMISYADEEGARVITWKNIDLPYVDVVSTEKEMIKRFLKVVKEKDPDVLITYNGDNFDFAYLKKRSEKLGVKFILGREGSEPKIQRMGDRFAVEVKGRIHFDLYPVIRRTINLPTYTLEAVYEAIFGQPKEKVYAEEIAQAWETGEGLERVARYSMEDAKVTYELGKEFFPMEAQLSRLVGQSLWDVSRSSTGNLVEWFLLRKAYERNELAPNKPDERELARRRESYAGGYVKEPERGLWENIVYLDFRSLGPSIIITHNVSPDTLNREGCEEYDVAPQVGHKFCKDFPGFIPSLLGDLLEERQKVKKKMKATIDPIEKKLLDYRQRLIKILANSFYGYYGYAKARWYCKECAESVTAWGRQYLETTIREIEEKFGFKVLYADGDGFLATIPGADAETVKKKAKEFLDYINAKLPGLLELEYEGFYKRGFFVTKAKYAVIDEEDKITTRGLEIVRRNWSEIAKETQARVLEAILKHGDVEEAVRIVKEVTEKLSKYEVPPEKLVIYKQITRDLKDYKATGPHVAVAKRLAARGIKIRPGTVISYIVLKGSGRIGDRAIPFDEFDPAKHKYDAEYYIENQVLPAVERILRAFGYRKEDLRYQKTRQVGLGAWLKPKT | – | – | – | – | – | small enhancement | –
2M: Tgo polymerase with V93Q, D141A, E143A, Y409G, A485L, I521L, T541G, F545L, K592A, E664K (SEQ ID NO: 3) (protein) MILDTDYITEDGKPVIRIFKKENGEFKIDYDRNFEPYIYALLKDDSAIEDVKKITAERHGTTVRVVRAEKVKKKFLGRPIEVWKLYFTHPQDQPAIRDKIKEHPAVVDIYEYDIPFAKRYLIDKGLIPMEGDEELKMLAFAIATLYHEGEEFAEGPILMISYADEEGARVITWKNIDLPYVDVVSTEKEMIKRFLKVVKEKDPDVLITYNGDNFDFAYLKKRSEKLGVKFILGREGSEPKIQRMGDRFAVEVKGRIHFDLYPVIRRTINLPTYTLEAVYEAIFGQPKEKVYAEEIAQAWETGEGLERVARYSMEDAKVTYELGKEFFPMEAQLSRLVGQSLWDVSRSSTGNLVEWFLLRKAYERNELAPNKPDERELARRRESYAGGYVKEPERGLWENIVYLDFRSLGPSIIITHNVSPDTLNREGCEEYDVAPQVGHKFCKDFPGFIPSLLGDLLEERQKVKKKMKATIDPIEKKLLDYRQRLIKILANSFYGYYGYAKARWYCKECAESVTAWGRQYLETTIREIEEKFGFKVLYADGDGFLATIPGADAETVKKKAKEFLDYINAKLPGLLELEYEGFYKRGFFVTKAKYAVIDEEDKITTRGLEIVRRDWSEIAKETQARVLEAILKHGDVEEAVRIVKEVTEKLSKYEVPPEKLVIYKQITRDLKDYKATGPHVAVAKRLAARGIKIRPGTVISYIVLKGSGRIGDRAIPFDEFDPAKHKYDAEYYIENQVLPAVERILRAFGYRKEDLRYQKTRQVGLGAWLKPKT | – | – | 90 | 84 | 65 | striking increase in 2′OMe-RNA synthesis activity | long-range 2′OMe-RNA synthesis length (template sfGFP): 750 nt; long-range MOE-RNA synthesis length (template sfGFP): 750 nt; time to reach full length synthesis (+79 nt), 2′OMe-RNA ([1]; 2′OMe-RNA primer FD-Test2): < 10 min; time to reach full length synthesis (+79 nt), DNA ([1]; 2′OMe-RNA primer FD-Test2): < 1 min; time to reach full length synthesis (+79 nt), MOE-RNA ([1]; 2′OMe-RNA primer FD-Test2): < 30 min; time to reach full length synthesis (+72 nt), 2′OMe-RNA (template TempNpure; 2′OMe-RNA primer FD): < 5 min; time to reach full length synthesis (+72 nt), MOE-RNA (template TempNpure; 2′OMe-RNA primer FD): < 20 min; MOE-RNA synthesis (in words) (template TempNpure; denaturing PAGE): able to efficiently synthesize MOE-RNA
